This is an account of results in article PMC3348880, “MSMEG_2731, an Uncharacterized Nucleic Acid Binding Protein from Mycobacterium smegmatis, Physically Interacts with RPS1” (PLoS ONE, 2012).

By stoichiometry N is commonly meant a count of units in the complex or per binding partner.

The target of data set [1] is T1, 30S ribosomal protein S1 (RPS1) (Mycobacterium smegmatis, UniProt A0QYY6 1-479).
T1 sequence: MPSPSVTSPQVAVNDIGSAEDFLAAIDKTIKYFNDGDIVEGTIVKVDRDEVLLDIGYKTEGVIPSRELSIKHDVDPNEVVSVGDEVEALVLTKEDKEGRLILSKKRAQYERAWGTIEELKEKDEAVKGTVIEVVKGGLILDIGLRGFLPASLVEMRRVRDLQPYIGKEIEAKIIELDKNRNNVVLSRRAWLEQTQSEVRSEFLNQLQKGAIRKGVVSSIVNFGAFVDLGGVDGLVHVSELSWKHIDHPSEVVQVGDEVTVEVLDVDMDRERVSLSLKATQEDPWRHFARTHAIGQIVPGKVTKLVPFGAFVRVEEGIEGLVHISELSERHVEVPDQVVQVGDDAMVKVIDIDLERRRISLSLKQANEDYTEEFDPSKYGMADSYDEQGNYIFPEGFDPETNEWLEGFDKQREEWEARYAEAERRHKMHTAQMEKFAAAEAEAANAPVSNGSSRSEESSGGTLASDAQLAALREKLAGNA
The data set can be described thus: SPR; 2.5 uM RPS1; fast association, complete dissociation; SPR (Biacore T100, SA chip): 25 mM Tris-HCl pH 7.4, 150 mM NaCl, 0.005% Tween 20, 25 C, 30 ul/min. The following applies: protein: recombinant; Methods name pET28a or pGEX-6P-1; label: 5' biotin (immobilized on SA chip); single strand.

Data set [2] has as its target T2, MSMEG_2731;30S ribosomal protein S1 (RPS1) (Mycobacterium smegmatis;Mycobacterium …, UniProt A0QVX6;A0QYY6 1-454;1-479, |).
T2 sequence 1: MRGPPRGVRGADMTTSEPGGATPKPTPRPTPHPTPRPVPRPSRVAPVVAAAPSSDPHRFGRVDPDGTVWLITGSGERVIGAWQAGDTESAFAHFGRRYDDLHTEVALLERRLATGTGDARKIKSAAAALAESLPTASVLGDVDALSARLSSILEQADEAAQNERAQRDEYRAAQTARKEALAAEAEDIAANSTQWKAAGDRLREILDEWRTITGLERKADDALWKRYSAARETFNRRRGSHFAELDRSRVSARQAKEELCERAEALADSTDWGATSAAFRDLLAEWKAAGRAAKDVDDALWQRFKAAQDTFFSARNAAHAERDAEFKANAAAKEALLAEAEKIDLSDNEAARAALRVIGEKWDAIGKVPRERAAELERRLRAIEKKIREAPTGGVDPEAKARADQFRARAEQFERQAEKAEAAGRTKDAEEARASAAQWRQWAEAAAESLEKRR
T2 sequence 2: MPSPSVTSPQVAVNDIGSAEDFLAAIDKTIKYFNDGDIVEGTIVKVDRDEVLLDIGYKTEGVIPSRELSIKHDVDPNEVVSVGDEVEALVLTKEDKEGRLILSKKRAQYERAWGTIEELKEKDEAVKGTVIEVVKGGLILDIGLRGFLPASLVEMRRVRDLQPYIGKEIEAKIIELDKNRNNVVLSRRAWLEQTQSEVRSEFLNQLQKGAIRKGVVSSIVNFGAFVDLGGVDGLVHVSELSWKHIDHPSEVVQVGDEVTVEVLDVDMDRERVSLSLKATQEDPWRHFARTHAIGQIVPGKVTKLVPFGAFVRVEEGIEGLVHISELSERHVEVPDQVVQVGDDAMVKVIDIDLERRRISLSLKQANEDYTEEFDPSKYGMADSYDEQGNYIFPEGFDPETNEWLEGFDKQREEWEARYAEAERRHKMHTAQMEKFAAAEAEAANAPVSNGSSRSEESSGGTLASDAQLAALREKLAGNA
Put plainly: SPR; 2.5 uM RPS1 with 1.25, 2.5 or 5 uM MSMEG_2731; maximum response at 1:1; kinetics like RPS1 alone; SPR (Biacore T100, SA chip): 25 mM Tris-HCl pH 7.4, 150 mM NaCl, 0.005% Tween 20, 25 C, 30 ul/min. The settings on record: protein: recombinant;recombinant; Methods name pET28a or pGEX-6P-1; copies: 1;1; label: 5' biotin (immobilized on SA chip); single strand.

The target of data set [3] is T3, purified recombinant RPS1 (M. smegmatis, UniProt A0QYY6 1-479).
T3 construct: 30S ribosomal protein S1 (RPS1) of Mycobacterium smegmatis, gene amplified from M. smegmatis genomic DNA; Cloned into pET28a or pGEX-6P-1; also called purified RPS1; ribosomal protein S1; source: E. coli BL21 (DE3), purified
T3 sequence (looked up): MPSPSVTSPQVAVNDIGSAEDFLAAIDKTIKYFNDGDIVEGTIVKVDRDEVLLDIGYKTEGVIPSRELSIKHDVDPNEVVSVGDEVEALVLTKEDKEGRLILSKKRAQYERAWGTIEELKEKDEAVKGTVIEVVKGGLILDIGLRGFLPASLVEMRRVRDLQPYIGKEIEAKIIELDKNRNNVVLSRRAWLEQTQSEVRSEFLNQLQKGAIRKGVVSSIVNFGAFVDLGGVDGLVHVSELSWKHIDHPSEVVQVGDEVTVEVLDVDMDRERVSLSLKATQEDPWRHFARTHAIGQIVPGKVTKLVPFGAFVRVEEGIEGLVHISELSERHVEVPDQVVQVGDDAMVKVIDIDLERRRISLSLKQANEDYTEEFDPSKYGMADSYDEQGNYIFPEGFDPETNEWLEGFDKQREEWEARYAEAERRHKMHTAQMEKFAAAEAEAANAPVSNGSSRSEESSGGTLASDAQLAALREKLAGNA
The data set can be described thus: SPR; Biacore T100, 25°C; mixtures of 2.5 μM RPS1 with 1.25, 2.5 or 5 μM MSMEG_2731 passed over RNA immobilised on an SA chip (100 RU); 25 mM Tris-HCl pH 7.4, 150 mM NaCl, 0.005% Tween 20. The following applies: both partners purified. A general note: Surface plasmon resonance follows binding to a sensor surface in real time, without labels.

Consider CACGUAUCUCGAGGAGCGGAUAUGA (ssRNA, 5' biotin) [RNA 25 nt], for which the binding result in data set [1] and in data set [2] was “binds” throughout.

B1: MSMEG_2731, N-terminal His-tagged recombinant protein (natural protein, M. smegmatis, UniProt A0QVX6 1-454, looked up)
chain: MRGPPRGVRGADMTTSEPGGATPKPTPRPTPHPTPRPVPRPSRVAPVVAAAPSSDPHRFGRVDPDGTVWLITGSGERVIGAWQAGDTESAFAHFGRRYDDLHTEVALLERRLATGTGDARKIKSAAAALAESLPTASVLGDVDALSARLSSILEQADEAAQNERAQRDEYRAAQTARKEALAAEAEDIAANSTQWKAAGDRLREILDEWRTITGLERKADDALWKRYSAARETFNRRRGSHFAELDRSRVSARQAKEELCERAEALADSTDWGATSAAFRDLLAEWKAAGRAAKDVDDALWQRFKAAQDTFFSARNAAHAERDAEFKANAAAKEALLAEAEKIDLSDNEAARAALRVIGEKWDAIGKVPRERAAELERRLRAIEKKIREAPTGGVDPEAKARADQFRARAEQFERQAEKAEAAGRTKDAEEARASAAQWRQWAEAAAESLEKRR
notes: MSMEG_2731, conserved hypothetical alanine and arginine rich protein of Mycobacterium smegmatis, 454 amino acids, three tandem repeats of DUF349; The protein tends to degrade at its N-terminus in vitro; also called full-length MSMEG_2731; recombinant MSMEG_2731; source: E. coli BL21 (DE3), pET28a, purified (Ni-NTA, gel filtration)
For B1, the “stoichiometry N” value in data set [3] was determined as 1.
